Reference: patent US20100222258A1 (KABUSHIKI KAISHA HAYASHIBARA SEIBUTSU KAGAKU KENKYUJO, published 2010)

T1: TNF-R1 (a protein having the amino acid sequence, Accession No. M58286 registered at GENBANK) (UniProt P19438 30-211, limits assumed)
T1 construct: also called TNF receptor having a molecular weight of 55 kilo daltons
T1 sequence (looked up): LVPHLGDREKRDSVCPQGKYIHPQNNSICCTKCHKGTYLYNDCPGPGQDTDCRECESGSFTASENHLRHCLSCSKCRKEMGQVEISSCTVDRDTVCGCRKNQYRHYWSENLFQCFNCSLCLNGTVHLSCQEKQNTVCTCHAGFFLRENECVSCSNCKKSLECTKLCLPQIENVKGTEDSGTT

T2: TNF-R2 (a protein having the amino acid sequence, Accession No. M55994 registered at GENBANK) (UniProt P20333 23-257, limits assumed)
T2 construct: also called TNF receptor with 75 kilo daltons
T2 sequence (looked up): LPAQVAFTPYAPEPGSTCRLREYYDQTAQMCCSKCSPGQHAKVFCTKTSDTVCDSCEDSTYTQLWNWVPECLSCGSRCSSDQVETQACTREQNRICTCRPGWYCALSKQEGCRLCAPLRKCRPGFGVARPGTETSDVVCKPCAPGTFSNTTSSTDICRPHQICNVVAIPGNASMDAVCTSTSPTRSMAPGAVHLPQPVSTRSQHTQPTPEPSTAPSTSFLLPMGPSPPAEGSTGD

T3: TNF-R1 on HEp-2 cells (human, UniProt P19438 30-455)
T3 sequence (looked up): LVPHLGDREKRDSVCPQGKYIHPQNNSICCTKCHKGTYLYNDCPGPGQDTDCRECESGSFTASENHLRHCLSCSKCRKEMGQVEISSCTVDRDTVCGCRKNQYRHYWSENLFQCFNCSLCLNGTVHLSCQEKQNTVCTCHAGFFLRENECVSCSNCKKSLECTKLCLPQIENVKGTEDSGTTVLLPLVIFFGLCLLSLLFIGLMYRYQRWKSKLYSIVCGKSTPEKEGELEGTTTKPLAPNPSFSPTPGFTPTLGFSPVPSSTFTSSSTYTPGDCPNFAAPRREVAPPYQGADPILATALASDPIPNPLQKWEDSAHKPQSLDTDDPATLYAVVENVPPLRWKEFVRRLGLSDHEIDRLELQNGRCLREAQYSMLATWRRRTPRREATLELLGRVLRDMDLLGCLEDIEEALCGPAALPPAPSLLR

T4: TNF-R1 on L-M cells (mouse, UniProt P25118 30-454)
T4 sequence (looked up): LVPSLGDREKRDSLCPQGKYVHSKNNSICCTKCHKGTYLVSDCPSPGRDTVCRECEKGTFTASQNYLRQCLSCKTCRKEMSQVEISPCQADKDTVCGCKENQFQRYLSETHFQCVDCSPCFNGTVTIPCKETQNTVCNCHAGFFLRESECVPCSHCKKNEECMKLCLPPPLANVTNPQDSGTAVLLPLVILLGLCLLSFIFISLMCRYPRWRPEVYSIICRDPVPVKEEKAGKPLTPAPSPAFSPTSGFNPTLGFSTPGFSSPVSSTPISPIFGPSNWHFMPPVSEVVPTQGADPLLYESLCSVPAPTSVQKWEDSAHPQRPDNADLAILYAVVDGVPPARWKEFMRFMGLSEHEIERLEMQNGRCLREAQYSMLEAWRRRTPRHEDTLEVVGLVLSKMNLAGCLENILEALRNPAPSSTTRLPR


Assays:
[1] = target: T1, TNF-R1 (a protein having the amino acid …); test: SPR (BIACORE 2000), receptor on sensor tip; grade 3 = 0.5 to 2 times that of recombinant TNF-α
From the text: (§1) Using the above detector based on surface plasmon resonance effect again, the resulting clones binding to TNF-R1 (or TNF-R2) were subjected to the remaining sensor tip conjugated with TNF-R2 (or TNF-R1) to measure receptor binding affinity and select clones having a variation of receptor binding affinity. […] The resulting DNAs were digested with restrict enzymes NdeI and BamHI to obtain DNA fragments. The resulting DNA fragments were introduced into a plasmid vector containing T7 promoter region, T7 terminator region, ampicillin resistant gene region and ColE1/Ori region (product name “pET-3a”, manufactured by “Novagen®” (EMD Biosciences, Inc.)) at the position of the above restriction sites. The resulting plasmid was introduced into E. coli BL21DE3 strain to obtain a transformed E. coli for producing the TNF mutant proteins. The obtained transformed E. coli was cultured according to usual method and centrifuged to collect E. coli pellet. The resulting pellet was washed twice with TES buffer (pH 8.0) (20 mM Tris-HCl, 10 mM ethylene diamine tetraacetic acid and 0.5 M sodium chloride) and admixed with TES buffer (pH 8.0) containing 0.2 mg/ml lysozyme. The resulting suspension was sonicated according to usual manner, and centrifuged to collect a precipitate containing the produced TNF mutant protein. The resulting precipitate was treated three times in a manner of admixing with TES buffer containing 1 (w/w) % Triton X-100, removed from supernatant by centrifuging, admixed with 50 mM Tris-HCl (pH 7.0) containing 8 M guanidine hydrochloride and 50 mM dithiothreitol, with stirring for 16 hours at ambient temperature under shielded condition, and centrifuged to collect a supernatant. The resulting supernatant was gently admixed with 100 time volumes of a aqueous solution containing 1 M Tris, 0.9 (w/v) % sodium chloride, 0.4 M L-arginine chloride, 2.5 mM reduced glutathione, 0.5 mM oxidized glutathione and 0.05 (w/v) % Tween 20, and kept at 4° C. for 16 hours.

[2] = target: T2, TNF-R2 (a protein having the amino acid …); test: SPR (BIACORE 2000), receptor on sensor tip; grade 1 = 0.001 to 0.1 time that of recombinant TNF-α
From the text: as §1

[3] = target: T1, TNF-R1 (a protein having the amino acid …); test: SPR (BIACORE 2000), receptor on sensor tip; grade 4 = two times or more that of recombinant TNF-α
From the text: as §1

TNF-R1 on HEp-2 cells = target: T3, TNF-R1 on HEp-2 cells; test: cell-based or functional assay
TNF-R1 on L-M cells = target: T4, TNF-R1 on L-M cells; test: cell-based or functional assay

Binder	binding affinity relative to recombinant TNF-α [1] [fold]	binding affinity relative to recombinant TNF-α [2] [fold]	binding affinity relative to recombinant TNF-α [3] [fold]	Viability (%) of HEp-2 cells, 10 ng/ml TNF-α + 1,000 ng/ml TNF antagonist (9 without antagonist) (TNF-R1 on HEp-2 cells) [%]	Viability (%) of HEp-2 cells, 10 ng/ml TNF-α + 10,000 ng/ml TNF antagonist (9 without antagonist) (TNF-R1 on HEp-2 cells) [%]	Viability (%) of HEp-2 cells, 10 ng/ml TNF-α + 100,000 ng/ml TNF antagonist (9 without antagonist) (TNF-R1 on HEp-2 cells) [%]	Viability (%) of HEp-2 cells, 10 ng/ml TNF-α + 500,000 ng/ml TNF antagonist (9 without antagonist) (TNF-R1 on HEp-2 cells) [%]	Viability (%) of L-M cells, 10 ng/ml TNF-α + 1,000 ng/ml TNF antagonist (17 without antagonist) (TNF-R1 on L-M cells) [%]	Viability (%) of L-M cells, 10 ng/ml TNF-α + 10,000 ng/ml TNF antagonist (17 without antagonist) (TNF-R1 on L-M cells) [%]	Viability (%) of L-M cells, 10 ng/ml TNF-α + 100,000 ng/ml TNF antagonist (17 without antagonist) (TNF-R1 on L-M cells) [%]	Viability (%) of L-M cells, 10 ng/ml TNF-α + 500,000 ng/ml TNF antagonist (17 without antagonist) (TNF-R1 on L-M cells) [%]
TNF mutant protein of clone No. 6 (ligand, Mutant of lysine-replaced TNF, made in E. coli; stop codon at position 147) VRSSSRTPSDMPVAHVVANPQAEGQLQWSNRYANALLANGVELRDNQLVVPSEGLYLIYSQVLFSGQGCPSTHVLLTHTISRIAVSYQTPVNLLSAIRSPCQRETPEGAEANPWYEPIYLGGVFQLEPGDRLSAEINRPDYLDFSM	0.5 to 2	0.001 to 0.1	–	–	–	–	–	–	–	–	–
TNF mutant protein of clone No. 1 (ligand, Mutant of lysine-replaced TNF, made in E. coli) VRSSSRTPSDMPVAHVVANPQAEGQLQWQNRWANALLANGVELRDNQLVVPSEGLYLIYSQVLFSGQGCPSTHVLLTHTISRIAVSYQTPVNLLSAIRSPCQRETPEGAEANPWYEPIYLGGVFQLEPGDRLSAEINRPDYLDFAESGQVYFGIIAL	0.5 to 2	0.001 to 0.1	–	–	–	–	–	–	–	–	–
TNF mutant protein of clone No. 3 (ligand, Mutant of lysine-replaced TNF, made in E. coli) VRSSSRTPSDMPVAHVVANPQAEGQLQWLNSDANALLANGVELRDNQLVVPSEGLYLIYSQVLFSGQGCPSTHVLLTHTISRIAVSYQTPVNLLSAIRSPCQRETPEGAEANPWYEPIYLGGVFQLEPGDRLSAEINRPDYLDFAARGQVYFGIIAL	0.5 to 2	0.001 to 0.1	–	–	–	–	–	–	–	–	–
TNF mutant protein of clone No. 18 (ligand, Mutant of lysine-replaced TNF, made in E. coli) VRSSSRTPSDMPVAHVVANPQAEGQLQWLNRRANALLANGVELRDNQLVVPSEGLYLIYSQVLFSGQGCPSTHVLLTHTISRISPLYPKPVNLLSAIRSPCQRETPEGAEANPWYEPIYLGGVFQLEPGDRLSAEINRPDYLDFAESGQVYFGIIAL	–	0.001 to 0.1	≥ 2	–	–	–	–	–	–	–	–
TNF mutant protein of clone No. 17 (ligand, Mutant of lysine-replaced TNF, made in E. coli) VRSSSRTPSDMPVAHVVANPQAEGQLQWLNRRANALLANGVELRDNQLVVPSEGLYLIYSQVLFSGQGCPSTHVLLTHTISRISKTYTHPVNLLSAIRSPCQRETPEGAEANPWYEPIYLGGVFQLEPGDRLSAEINRPDYLDFAESGQVYFGIIAL	0.5 to 2	0.001 to 0.1	–	–	–	–	–	–	–	–	–
TNF mutant protein of clone No. 22 (ligand, Mutant of lysine-replaced TNF, made in E. coli) VRSSSRTPSDMPVAHVVANPQAEGQLQWLNRRANALLANGVELRDNQLVVPSEGLYLIYSQVLFSGQGCPSTHVLLTHTISRISRVYTAPVNLLSAIRSPCQRETPEGAEANPWYEPIYLGGVFQLEPGDRLSAEINRPDYLDFAESGQVYFGIIAL	0.5 to 2	0.001 to 0.1	–	–	–	–	–	–	–	–	–

More lines, main results first:

binding affinity relative to recombinant TNF-α [1] [fold]	binding affinity relative to recombinant TNF-α [2] [fold]	binding affinity relative to recombinant TNF-α [3] [fold]	Binder	Viability (%) of HEp-2 cells, 10 ng/ml TNF-α + 1,000 ng/ml TNF antagonist (9 without antagonist) (TNF-R1 on HEp-2 cells) [%]	Viability (%) of HEp-2 cells, 10 ng/ml TNF-α + 10,000 ng/ml TNF antagonist (9 without antagonist) (TNF-R1 on HEp-2 cells) [%]	Viability (%) of HEp-2 cells, 10 ng/ml TNF-α + 100,000 ng/ml TNF antagonist (9 without antagonist) (TNF-R1 on HEp-2 cells) [%]	Viability (%) of HEp-2 cells, 10 ng/ml TNF-α + 500,000 ng/ml TNF antagonist (9 without antagonist) (TNF-R1 on HEp-2 cells) [%]	Viability (%) of L-M cells, 10 ng/ml TNF-α + 1,000 ng/ml TNF antagonist (17 without antagonist) (TNF-R1 on L-M cells) [%]	Viability (%) of L-M cells, 10 ng/ml TNF-α + 10,000 ng/ml TNF antagonist (17 without antagonist) (TNF-R1 on L-M cells) [%]	Viability (%) of L-M cells, 10 ng/ml TNF-α + 100,000 ng/ml TNF antagonist (17 without antagonist) (TNF-R1 on L-M cells) [%]	Viability (%) of L-M cells, 10 ng/ml TNF-α + 500,000 ng/ml TNF antagonist (17 without antagonist) (TNF-R1 on L-M cells) [%]
0.5 to 2	0.001 to 0.1	–	TNF mutant protein of clone No. 29 (ligand, Mutant of lysine-replaced TNF, made in E. coli) VRSSSRTPSDMPVAHVVANPQAEGQLQWLNRRANALLANGVELRDNQLVVPSEGLYLIYSQVLFSGQGCPSTHVLLTHTISRITEQYSHPVNLLSAIRSPCQRETPEGAEANPWYEPIYLGGVFQLEPGDRLSAEINRPDYLDFAESGQVYFGIIAL	–	–	–	–	–	–	–	–
0.5 to 2	0.001 to 0.1	–	TNF mutant protein of clone No. 37 (ligand, Mutant of lysine-replaced TNF, made in E. coli; also called TNF antagonist of clone No. 37) VRSSSRTPSDMPVAHVVANPQAEGQLQWLNRRANALLANGVELRDNQLVVPSEGLYLIYSQVLFSGQGCPSTHVLLTHTISRISTTHNQPVNLLSAIRSPCQRETPEGAEANPWYEPIYLGGVFQLEPGDRLSAEINRPDYLDFAESGQVYFGIIAL	11	18	43	75	42	51	59	72
0.5 to 2	0.001 to 0.1	–	TNF mutant protein of clone No. 38 (ligand, Mutant of lysine-replaced TNF, made in E. coli; also called TNF antagonist of clone No. 38) VRSSSRTPSDMPVAHVVANPQAEGQLQWLNRRANALLANGVELRDNQLVVPSEGLYLIYSQVLFSGQGCPSTHVLLTHTISRIGGPYQRPVNLLSAIRSPCQRETPEGAEANPWYEPIYLGGVFQLEPGDRLSAEINRPDYLDFAESGQVYFGIIAL	11	22	72	95	42	47	58	70
0.5 to 2	0.001 to 0.1	–	TNF mutant protein of clone No. 28 (ligand, Mutant of lysine-replaced TNF, made in E. coli) VRSSSRTPSDMPVAHVVANPQAEGQLQWLNRRANALLANGVELRDNQLVVPSEGLYLIYSQVLFSGQGCPSTHVLLTHTISRITKSYSKPVNLLSAIRSPCQRETPEGAEANPWYEPIYLGGVFQLEPGDRLSAEINRPDYLDFAESGQVYFGIIAL	–	–	–	–	–	–	–	–
0.5 to 2	0.001 to 0.1	–	TNF mutant protein of clone No. 36 (ligand, Mutant of lysine-replaced TNF, made in E. coli; also called TNF antagonist of clone No. 36) VRSSSRTPSDMPVAHVVANPQAEGQLQWLNRRANALLANGVELRDNQLVVPSEGLYLIYSQVLFSGQGCPSTHVLLTHTISRIAPGYSHPVNLLSAIRSPCQRETPEGAEANPWYEPIYLGGVFQLEPGDRLSAEINRPDYLDFAESGQVYFGIIAL	12	13	38	74	43	54	63	59
